For data set [1], the target named is phage TP901-1 ORF46 (Dit) (Lactococcus phage TP901-1). Kind of data set: native MS.
The target is the same in data set [2]. Kind of data set: native MS. The source holds these as a separate data set.
Data set [3] shares this target. Kind of data set: SEC-MALS.
For data set [4] the target is unchanged. Kind of data set: denaturing ESI-MS.
Data set [5] deals with phage TP901-1 ORF49 (BppL, the RBP), as in the sample TP1 (Lactococcus phage TP901-1). Kind of data set: native MS.
Data set [6] has as its target Tal-N (TP901-1 ORF47 N-terminal region, residues 1-386) (Lactococcus phage TP901-1). Kind of data set: native MS.
The target is the same in data set [7]. Kind of data set: denaturing ESI-MS.
Data set [8] addresses phage TP901-1 ORF49 (BppL), as in the Tripod sample (Lactococcus phage TP901-1). Kind of data set: native MS.
Data set [9] concerns the target phage TP901-1 ORF48 (BppU), as in the Tripod sample (Lactococcus phage TP901-1). Kind of data set: native MS.
Data set [10] addresses phage p2 ORF16 (Lactococcus phage p2). Kind of data set: native MS.
Data set [11] has the same target. Kind of data set: native MS. This is another data set of the same source.
Data set [12] concerns the target phage TP901-1 ORF48 (BppU), as in the samples TP1 and Dit-BppU (Lactococcus phage TP901-1). Kind of data set: native MS.
Data set [13] has the same target. Kind of data set: native MS. The source holds these as a separate data set.
The target in data set [14] is phage p2 baseplate subcomplex SBP1 [6xORF15 + 3xORF16] (Lactococcus phage p2) (UniProt D3WAD3). Kind of data set: native MS.
The target of data set [15] is phage p2 ORF15 (as in the sample SBP1) (Lactococcus phage p2) (UniProt D3WAD3). Kind of data set: native MS.
Data set [16] concerns the molecule itself. Kind of data set: denaturing ESI-MS.
Data set [17] deals with the molecule itself. Kind of data set: native MS.
Data set [18] deals with the molecule itself. Kind of data set: native MS. This is another data set of the same source.
The target in data set [19] is T1, phage p2 baseplate [6xORF15 + 3xORF16 + 18xORF18] (Lactococcus phage p2).
T1 chain 1: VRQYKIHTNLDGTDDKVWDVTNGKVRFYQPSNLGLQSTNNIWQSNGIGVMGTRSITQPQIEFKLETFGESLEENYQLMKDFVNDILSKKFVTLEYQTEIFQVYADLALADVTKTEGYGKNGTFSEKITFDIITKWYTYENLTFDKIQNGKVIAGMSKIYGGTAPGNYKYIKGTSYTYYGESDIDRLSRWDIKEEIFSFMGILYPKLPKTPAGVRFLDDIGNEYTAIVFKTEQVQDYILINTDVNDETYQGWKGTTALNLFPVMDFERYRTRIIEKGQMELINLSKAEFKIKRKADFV
T1 chain 2: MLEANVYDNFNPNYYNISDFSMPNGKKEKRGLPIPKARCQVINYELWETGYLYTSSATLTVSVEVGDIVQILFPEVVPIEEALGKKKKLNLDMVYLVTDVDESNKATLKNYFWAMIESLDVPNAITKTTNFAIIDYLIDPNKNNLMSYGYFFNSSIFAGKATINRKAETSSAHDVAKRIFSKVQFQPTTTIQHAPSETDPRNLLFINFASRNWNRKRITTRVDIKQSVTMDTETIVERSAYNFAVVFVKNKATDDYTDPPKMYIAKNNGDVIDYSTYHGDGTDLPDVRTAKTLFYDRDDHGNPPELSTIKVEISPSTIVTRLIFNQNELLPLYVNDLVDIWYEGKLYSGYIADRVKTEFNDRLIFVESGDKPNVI
T1 chain 3: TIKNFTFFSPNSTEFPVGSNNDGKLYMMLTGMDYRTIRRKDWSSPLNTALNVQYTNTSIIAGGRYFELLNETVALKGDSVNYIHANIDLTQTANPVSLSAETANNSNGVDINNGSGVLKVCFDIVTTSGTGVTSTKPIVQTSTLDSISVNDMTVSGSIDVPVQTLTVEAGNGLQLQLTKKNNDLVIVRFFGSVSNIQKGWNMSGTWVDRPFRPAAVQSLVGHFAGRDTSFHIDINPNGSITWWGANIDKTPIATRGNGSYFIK
Kind of data set: native MS.

Data set [20] concerns the molecule itself. Kind of data set: native MS. This is another data set of the same source.

“And” between values parts separate entries of the source, which are not always exact repeats. Equal entries are not always repeated. Where two headings read alike, the source gives them in different places.

The term stoichiometry N denotes the number of molecules, sites or subunits per partner or assembly.

Regarding “phage TP901-1 ORF46 (Dit) (natural protein)”, the stoichiometry N in [1] was 6 and 12; in [2] it was 6; in data set [3], 12; in data set [4], 2 and 3 and 6.

With “phage TP901-1 ORF49 (BppL, the RBP), as in the sample TP1 (natural protein)”, the stoichiometry N in data set [5] was 3 and 6.

For the molecule “Tal-N (TP901-1 ORF47 N-terminal region, residues 1-386) (domain or fragment)”, the stoichiometry N was 2 and 3 in data set [6]; 2 and 3 in [7].

For “phage TP901-1 ORF49 (BppL), as in the Tripod sample (natural protein)”, the stoichiometry N in data set [8] is 3.

The molecule “phage TP901-1 ORF48 (BppU), as in the Tripod sample (natural protein)” registered a stoichiometry N in data set [9] of 3.

Consider phage p2 ORF16 (natural protein), for which the stoichiometry N was 2 and 3 in [10]; 3 in [11].

On to “phage TP901-1 ORF48 (BppU), as in the samples TP1 and Dit-BppU (natural protein)”, for which the stoichiometry N in data set [12] and in data set [13] was 3 throughout.

“phage p2 baseplate subcomplex SBP1 [6xORF15 + 3xORF16] (from UniProt D3WAD3 2-298)”: in [14], the stoichiometry N is 2.

In [15], “phage p2 ORF15 (as in the sample SBP1) (from UniProt D3WAD3 2-298) (natural protein)” gave a stoichiometry N of 6.

B1: phage p2 ORF18 (receptor-binding protein) (natural protein, Lactococcus phage p2)
chain: TIKNFTFFSPNSTEFPVGSNNDGKLYMMLTGMDYRTIRRKDWSSPLNTALNVQYTNTSIIAGGRYFELLNETVALKGDSVNYIHANIDLTQTANPVSLSAETANNSNGVDINNGSGVLKVCFDIVTTSGTGVTSTKPIVQTSTLDSISVNDMTVSGSIDVPVQTLTVEAGNGLQLQLTKKNNDLVIVRFFGSVSNIQKGWNMSGTWVDRPFRPAAVQSLVGHFAGRDTSFHIDINPNGSITWWGANIDKTPIATRGNGSYFIK
Take B1: the “stoichiometry N” value in data set [16] is 2; in data set [17], 3; in data set [18] it was 3.

B2: VHH5 neutralizing llama antibody fragment (VHH)
VHH: QVQLQESGGGLVQAGGSLRLSCTASRRTGSNWCMGWFRQLAGKEPELVVALNFDYDMTYYADSVKGRFTVSRDSGKNTVYLQMNSLKPEDTAIYYCAARSGGFSSNRELYDGWGQGTQVTVSS
Take B2: the “stoichiometry N” value in data set [19] was 18.

B3: phage p2 ORF15 (as in the samples BP1, BP2 and SBP2) (natural protein, Lactococcus phage p2)
chain: VRQYKIHTNLDGTDDKVWDVTNGKVRFYQPSNLGLQSTNNIWQSNGIGVMGTRSITQPQIEFKLETFGESLEENYQLMKDFVNDILSKKFVTLEYQTEIFQVYADLALADVTKTEGYGKNGTFSEKITFDIITKWYTYENLTFDKIQNGKVIAGMSKIYGGTAPGNYKYIKGTSYTYYGESDIDRLSRWDIKEEIFSFMGILYPKLPKTPAGVRFLDDIGNEYTAIVFKTEQVQDYILINTDVNDETYQGWKGTTALNLFPVMDFERYRTRIIEKGQMELINLSKAEFKIKRKADFV
In the case of B3, in data set [20], the “stoichiometry N” value turned out to be 6.

Source of the values: PMC3186816 (Molecular & Cellular Proteomics : MCP, 2011).
